Laboratory results as given in patent publication US20110098217A1 (INDIANA UNIVERSITY RESEARCH AND TECHNOLOGY, published 2011).
Like-named read-outs stand apart in the source and are kept apart here. Numbered stars: 1 amine (or outer) side, 2 acyl side, 3 side chain; on linkers, the order of the positions; unused ones are H or OH. Bridge positions count the residues as written; N and C are the ends. Square brackets hold non-standard residues; d marks the D form. Ends that are not written are not given here. CSA‑2 = Cys(S-CH2CH2COOH), S-(2-carboxyethyl)-L-cysteine, O=C([C@H](CSCCC(=O)[*:3])N[*:1])[*:2]; CSA‑1 = Cys(S-CH2COOH), S-carboxymethyl-L-cysteine, O=C([C@H](CSCC(=O)[*:3])N[*:1])[*:2]; PhLac = O=C(O)[C@@H](O)Cc1ccccc1; NSG‑1 = not defined here; NSG‑2 = not defined here; Aib = CC(C)(N)C(=O)O

Key:
[1] = target: human glucagon receptor (human) (UniProt P47871); assay: cell-based or functional assay
human glucagon receptor [2] = target: T1, human glucagon receptor (human, UniProt P47871 26-477); assay: cell-based or functional assay
human GLP-1 receptor [3] = target: T2, human GLP-1 receptor (human, UniProt P43220 24-463); assay: cell-based or functional assay
human glucagon receptor [4] = target: T1, human glucagon receptor; assay: cell-based or functional assay; remark: listed apart in the source
human GLP-1 receptor [5] = target: T2, human GLP-1 receptor; assay: cell-based or functional assay; remark: listed apart in the source
human glucagon receptor [6] = target: T1, human glucagon receptor; assay: cell-based or functional assay; remark: listed apart in the source
human glucagon receptor [7] = target: T1, human glucagon receptor; assay: cell-based or functional assay; remark: listed apart in the source
human glucagon receptor [8] = target: T1, human glucagon receptor; assay: cell-based or functional assay; remark: listed apart in the source
human glucagon receptor [9] = target: T1, human glucagon receptor; assay: cell-based or functional assay; remark: listed apart in the source
human glucagon receptor [10] = target: T1, human glucagon receptor; assay: SPA competition vs 125I-glucagon, receptor membranes
human GLP-1 receptor [11] = target: T2, human GLP-1 receptor; assay: cell-based or functional assay; remark: listed apart in the source
human GLP-1 receptor [12] = target: T2, human GLP-1 receptor; assay: cell-based or functional assay; remark: listed apart in the source
human GLP-1 receptor [13] = target: T2, human GLP-1 receptor; assay: cell-based or functional assay; remark: listed apart in the source
human glucagon receptor [14] = target: T1, human glucagon receptor; assay: cell-based or functional assay; remark: listed apart in the source
[15] = target: human GLP-1 receptor (human) (UniProt P43220); assay: cell-based or functional assay
[16] = target: human glucagon receptor (human) (UniProt P47871); assay: cell-based or functional assay; remark: listed apart in the source

T1 sequence (P47871 26-477): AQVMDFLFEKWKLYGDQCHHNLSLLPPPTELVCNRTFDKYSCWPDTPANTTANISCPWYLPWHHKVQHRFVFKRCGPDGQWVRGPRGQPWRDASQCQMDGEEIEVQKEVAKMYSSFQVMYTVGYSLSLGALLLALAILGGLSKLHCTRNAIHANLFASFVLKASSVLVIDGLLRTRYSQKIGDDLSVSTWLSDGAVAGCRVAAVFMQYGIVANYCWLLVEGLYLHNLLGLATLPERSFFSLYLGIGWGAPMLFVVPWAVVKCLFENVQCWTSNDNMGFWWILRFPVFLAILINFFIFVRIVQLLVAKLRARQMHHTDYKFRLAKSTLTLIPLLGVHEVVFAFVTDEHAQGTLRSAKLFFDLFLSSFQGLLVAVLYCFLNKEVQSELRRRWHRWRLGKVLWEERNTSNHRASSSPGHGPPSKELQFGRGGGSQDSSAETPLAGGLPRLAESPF
human glucagon receptor (human), sequence (P47871 26-477): as above
human GLP-1 receptor (human), sequence (P43220 24-463): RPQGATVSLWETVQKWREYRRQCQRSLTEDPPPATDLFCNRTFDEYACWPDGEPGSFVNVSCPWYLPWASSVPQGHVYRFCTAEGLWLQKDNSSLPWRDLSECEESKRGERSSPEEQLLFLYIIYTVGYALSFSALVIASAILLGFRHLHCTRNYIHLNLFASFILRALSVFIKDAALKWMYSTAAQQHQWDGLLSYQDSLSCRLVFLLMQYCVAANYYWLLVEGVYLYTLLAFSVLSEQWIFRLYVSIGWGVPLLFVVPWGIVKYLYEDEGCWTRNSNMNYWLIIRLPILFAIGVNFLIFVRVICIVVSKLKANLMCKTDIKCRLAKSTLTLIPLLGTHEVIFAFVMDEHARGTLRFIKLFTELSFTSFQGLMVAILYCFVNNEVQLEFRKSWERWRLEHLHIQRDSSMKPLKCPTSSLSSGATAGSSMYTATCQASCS

Molecule: [PLA6, E9, E16K20(Lactam)]G(6-39) (peptide)
- Glucagon antagonism IC50 (inhibit 0.2-0.8 nM glucagon) [1]: 20.5 nM

B1: [PLA^5, E^9]Glucagon(aa5-29)-NH2 (peptide)
peptide: [PhLac]FTSEYSKYLDSRRAQDFVQWLMNT-NH2
modifications: N-terminus assumed
SMILES: CSCC[C@H](NC(=O)[C@H](CC(C)C)NC(=O)[C@H](Cc1c[nH]c2ccccc12)NC(=O)[C@H](CCC(N)=O)NC(=O)[C@@H](NC(=O)[C@H](Cc1ccccc1)NC(=O)[C@H](CC(=O)O)NC(=O)[C@H](CCC(N)=O)NC(=O)[C@H](C)NC(=O)[C@H](CCCNC(=N)N)NC(=O)[C@H](CCCNC(=N)N)NC(=O)[C@H](CO)NC(=O)[C@H](CC(=O)O)NC(=O)[C@H](CC(C)C)NC(=O)[C@H](Cc1ccc(O)cc1)NC(=O)[C@H](CCCCN)NC(=O)[C@H](CO)NC(=O)[C@H](Cc1ccc(O)cc1)NC(=O)[C@H](CCC(=O)O)NC(=O)[C@H](CO)NC(=O)[C@@H](NC(=O)[C@H](Cc1ccccc1)NC(=O)[C@@H](O)Cc1ccccc1)[C@@H](C)O)C(C)C)C(=O)N[C@@H](CC(N)=O)C(=O)N[C@H](C(N)=O)[C@@H](C)O
- IC50 (cAMP, inhibit 0.8 mM Glucagon) (human glucagon receptor [2]): 328 nM

B2: [G4T5, E9, E16K20(Lactam), D28] G(4-29) (peptide)
peptide: GTFTSEYSKYLDERRAKDFVQWLMDT-NH2
modifications: lactam 13-17; N-terminus assumed
SMILES: CSCC[C@H](NC(=O)[C@H](CC(C)C)NC(=O)[C@H](Cc1c[nH]c2ccccc12)NC(=O)[C@H](CCC(N)=O)NC(=O)[C@@H](NC(=O)[C@H](Cc1ccccc1)NC(=O)[C@H](CC(=O)O)NC(=O)[C@@H]1CCCCNC(=O)CC[C@H](NC(=O)[C@H](CC(=O)O)NC(=O)[C@H](CC(C)C)NC(=O)[C@H](Cc2ccc(O)cc2)NC(=O)[C@H](CCCCN)NC(=O)[C@H](CO)NC(=O)[C@H](Cc2ccc(O)cc2)NC(=O)[C@H](CCC(=O)O)NC(=O)[C@H](CO)NC(=O)[C@@H](NC(=O)[C@H](Cc2ccccc2)NC(=O)[C@@H](NC(=O)CN)[C@@H](C)O)[C@@H](C)O)C(=O)N[C@@H](CCCNC(=N)N)C(=O)N[C@@H](CCCNC(=N)N)C(=O)N[C@@H](C)C(=O)N1)C(C)C)C(=O)N[C@@H](CC(=O)O)C(=O)N[C@H](C(N)=O)[C@@H](C)O
- GLP-1 agonism EC50 (human GLP-1 receptor [3]): 151 nM
- Glucagon antagonism IC50 (inhibit 0.8 nM glucagon) (human glucagon receptor [4]): 12.7 nM
- GLP-1 EC50 (human GLP-1 receptor [5]): 151 nM

B3: ANK2 (Bayer peptide) (peptide)
peptide: HSQGTFTSDYARYLDARRAREFIKWLVRGRG
- GLP-1 agonism EC50 (human GLP-1 receptor [3]): 0.28 nM
- GLP-1 EC50 (human GLP-1 receptor [5]): 0.28 nM

B4: [A2E3, E9, E16K20(Lactam), D28]G(2-29) (peptide)
peptide: AEGTFTSEYSKYLDERRAKDFVQWLMDT-NH2
modifications: lactam 15-19
- Glucagon antagonism IC50 (inhibit 0.8 nM glucagon) (human glucagon receptor [6]): 151 nM
- Glucagon antagonism IC50 (inhibit 0.8 nM glucagon) (human glucagon receptor [7]): 63.2 nM
- Glucagon antagonism IC50 (inhibit 0.2-0.8 nM glucagon) (human glucagon receptor [8]): 63.2 nM
- Glucagon antagonism IC50 (inhibit 0.8 nM glucagon) (human glucagon receptor [4]): 63.2 nM
- Glucagon IC50 (human glucagon receptor [9]): 63 nM

B5: [Ac-PLA^6, E^9]Glucagon(aa6-29)-NH2 (peptide)
peptide: Ac-[PhLac]TSEYSKYLDSRRAQDFVQWLMNT-NH2
- IC50 (cAMP, inhibit 0.8 mM Glucagon) (human glucagon receptor [2]): 38.1 nM

B6: [PLA^4, E^9]Glucagon(aa4-29)-NH2 (peptide)
peptide: [PhLac]TFTSEYSKYLDSRRAQDFVQWLMNT-NH2
modifications: N-terminus assumed
SMILES: CSCC[C@H](NC(=O)[C@H](CC(C)C)NC(=O)[C@H](Cc1c[nH]c2ccccc12)NC(=O)[C@H](CCC(N)=O)NC(=O)[C@@H](NC(=O)[C@H](Cc1ccccc1)NC(=O)[C@H](CC(=O)O)NC(=O)[C@H](CCC(N)=O)NC(=O)[C@H](C)NC(=O)[C@H](CCCNC(=N)N)NC(=O)[C@H](CCCNC(=N)N)NC(=O)[C@H](CO)NC(=O)[C@H](CC(=O)O)NC(=O)[C@H](CC(C)C)NC(=O)[C@H](Cc1ccc(O)cc1)NC(=O)[C@H](CCCCN)NC(=O)[C@H](CO)NC(=O)[C@H](Cc1ccc(O)cc1)NC(=O)[C@H](CCC(=O)O)NC(=O)[C@H](CO)NC(=O)[C@@H](NC(=O)[C@H](Cc1ccccc1)NC(=O)[C@@H](NC(=O)[C@@H](O)Cc1ccccc1)[C@@H](C)O)[C@@H](C)O)C(C)C)C(=O)N[C@@H](CC(N)=O)C(=O)N[C@H](C(N)=O)[C@@H](C)O
- IC50 (cAMP, inhibit 0.8 mM Glucagon) (human glucagon receptor [2]): 84.4 nM

B7: [(NSG-2)^9] Glucagon(aa2-29)-NH2 (peptide)
peptide: SQGTFTS[NSG‑2]YSKYLDSRRAQDFVQWLMNT-NH2
modifications: reading uncertain
notes: also called peptide no
- IC50 (human glucagon receptor [10]): 2350 nM

B8: [(CSA-2)^9] Glucagon(aa2-29)-NH2 (peptide)
peptide: SQGTFTS[CSA‑2]YSKYLDSRRAQDFVQWLMNT-NH2
modifications: N-terminus assumed
SMILES: CSCC[C@H](NC(=O)[C@H](CC(C)C)NC(=O)[C@H](Cc1c[nH]c2ccccc12)NC(=O)[C@H](CCC(N)=O)NC(=O)[C@@H](NC(=O)[C@H](Cc1ccccc1)NC(=O)[C@H](CC(=O)O)NC(=O)[C@H](CCC(N)=O)NC(=O)[C@H](C)NC(=O)[C@H](CCCNC(=N)N)NC(=O)[C@H](CCCNC(=N)N)NC(=O)[C@H](CO)NC(=O)[C@H](CC(=O)O)NC(=O)[C@H](CC(C)C)NC(=O)[C@H](Cc1ccc(O)cc1)NC(=O)[C@H](CCCCN)NC(=O)[C@H](CO)NC(=O)[C@H](Cc1ccc(O)cc1)NC(=O)[C@H](CSCCC(=O)O)NC(=O)[C@H](CO)NC(=O)[C@@H](NC(=O)[C@H](Cc1ccccc1)NC(=O)[C@@H](NC(=O)CNC(=O)[C@H](CCC(N)=O)NC(=O)[C@@H](N)CO)[C@@H](C)O)[C@@H](C)O)C(C)C)C(=O)N[C@@H](CC(N)=O)C(=O)N[C@H](C(N)=O)[C@@H](C)O
notes: also called peptide no
- IC50 (human glucagon receptor [10]): 13.3 nM

B9: [(NSG-1)^9] Glucagon(aa2-29)-NH2 (peptide)
peptide: SQGTFTS[NSG‑1]YSKYLDSRRAQDFVQWLMNT-NH2
modifications: reading uncertain
notes: also called peptide no
- IC50 (human glucagon receptor [10]): 983 nM

B10: [(CSA-1]^9] Glucagon(aa2-29)-NH2 (peptide)
peptide: SQGTFTS[CSA‑1]YSKYLDSRRAQDFVQWLMNT-NH2
modifications: N-terminus assumed
SMILES: CSCC[C@H](NC(=O)[C@H](CC(C)C)NC(=O)[C@H](Cc1c[nH]c2ccccc12)NC(=O)[C@H](CCC(N)=O)NC(=O)[C@@H](NC(=O)[C@H](Cc1ccccc1)NC(=O)[C@H](CC(=O)O)NC(=O)[C@H](CCC(N)=O)NC(=O)[C@H](C)NC(=O)[C@H](CCCNC(=N)N)NC(=O)[C@H](CCCNC(=N)N)NC(=O)[C@H](CO)NC(=O)[C@H](CC(=O)O)NC(=O)[C@H](CC(C)C)NC(=O)[C@H](Cc1ccc(O)cc1)NC(=O)[C@H](CCCCN)NC(=O)[C@H](CO)NC(=O)[C@H](Cc1ccc(O)cc1)NC(=O)[C@H](CSCC(=O)O)NC(=O)[C@H](CO)NC(=O)[C@@H](NC(=O)[C@H](Cc1ccccc1)NC(=O)[C@@H](NC(=O)CNC(=O)[C@H](CCC(N)=O)NC(=O)[C@@H](N)CO)[C@@H](C)O)[C@@H](C)O)C(C)C)C(=O)N[C@@H](CC(N)=O)C(=O)N[C@H](C(N)=O)[C@@H](C)O
notes: also called peptide no
- IC50 (human glucagon receptor [10]): 12.7 nM

B11: [H1A2E3, E9, E16K20(Lactam), D28]G(1-29) (peptide)
peptide: HAEGTFTSEYSKYLDERRAKDFVQWLMDT-NH2
modifications: lactam 16-20; N-terminus assumed
SMILES: CSCC[C@H](NC(=O)[C@H](CC(C)C)NC(=O)[C@H](Cc1c[nH]c2ccccc12)NC(=O)[C@H](CCC(N)=O)NC(=O)[C@@H](NC(=O)[C@H](Cc1ccccc1)NC(=O)[C@H](CC(=O)O)NC(=O)[C@@H]1CCCCNC(=O)CC[C@H](NC(=O)[C@H](CC(=O)O)NC(=O)[C@H](CC(C)C)NC(=O)[C@H](Cc2ccc(O)cc2)NC(=O)[C@H](CCCCN)NC(=O)[C@H](CO)NC(=O)[C@H](Cc2ccc(O)cc2)NC(=O)[C@H](CCC(=O)O)NC(=O)[C@H](CO)NC(=O)[C@@H](NC(=O)[C@H](Cc2ccccc2)NC(=O)[C@@H](NC(=O)CNC(=O)[C@H](CCC(=O)O)NC(=O)[C@H](C)NC(=O)[C@@H](N)Cc2c[nH]cn2)[C@@H](C)O)[C@@H](C)O)C(=O)N[C@@H](CCCNC(=N)N)C(=O)N[C@@H](CCCNC(=N)N)C(=O)N[C@@H](C)C(=O)N1)C(C)C)C(=O)N[C@@H](CC(=O)O)C(=O)N[C@H](C(N)=O)[C@@H](C)O
- GLP-1 agonism EC50 (human GLP-1 receptor [11]): 0.11 nM
- Glucagon antagonism IC50 (inhibit 0.8 nM glucagon) (human glucagon receptor [7]): 129 nM
- GLP-1 agonism EC50 (human GLP-1 receptor [12]): 0.11 nM
- Glucagon antagonism IC50 (inhibit 0.2-0.8 nM glucagon) (human glucagon receptor [8]): 129 nM
- GLP-1 agonism EC50 (human GLP-1 receptor [3]): 0.11 nM
- Glucagon antagonism IC50 (inhibit 0.8 nM glucagon) (human glucagon receptor [4]): 129 nM
- GLP-1 EC50 (human GLP-1 receptor [5]): 0.2 nM
- Glucagon IC50 (human glucagon receptor [9]): 130 nM

B12: Aib depsi lactam G(2-29) (peptide)
peptide: [Aib]EGT[PhLac]TSDYSKYLDERRAKDFVQWLMDT-NH2
modifications: lactam 15-19; also: PLA6 linked to Thr5 by an ester bond (depsipeptide)
- GLP-1 agonism EC50 (human GLP-1 receptor [13]): 5.83 nM
- Glucagon antagonism IC50 (inhibit 0.4 nM glucagon) (human glucagon receptor [14]): 11.8 nM

B13: [PLA6, E9, E16]G(6-39) (peptide)
peptide: FTSEYSKYLDERRAQDFVQWLMNTGPSSGAPPPS
modifications: PLA at position 6; C-terminal amide
- GLP-1 agonism EC50 [15]: 1760 nM
- Glucagon antagonism IC50 (inhibit 0.2-0.8 nM glucagon) [16]: 58.1 nM

B14: K40-chol G(6-40) (peptide)
peptide: FTSDYSKYLDERRAKDFVQWLMDTGPSSGAPPPSK
modifications: PLA at position 6; lactam bridge Glu16-Lys20; Lys40(COCH2CH2S-Chol) cholesterol conjugate; C-terminal amide
- GLP-1 agonism EC50 [15]: 47 nM
- Glucagon antagonism IC50 (inhibit 0.4 nM glucagon) [16]: 312 nM
